Experimental findings from paper PMC6366758 are described below.

For experiment [1], the target named is RSV F glycoprotein nanoparticles (human respiratory syncytial virus A2 (RSV/A2)).
Experiment [2] concerns the target Post-fusion F (human respiratory syncytial virus A2 (RSV/A2)). Nature of the experiment: SPR. (In general: Surface plasmon resonance follows binding to a sensor surface in real time, without labels.)
The target in experiment [3] is RSV F710 post-fusion (human respiratory syncytial virus A2 (RSV/A2) | bacteriophage T4). Nature of the experiment: cryo-EM structure; single particle cryo-EM of the purified RSV F710-R4.C6 Fab complex on graphene oxide grids; C3 symmetry; overall 3.9 A.

Turning to Motavizumab (antibody), in experiment [1], the RSV/A Long neutralization (IC50), micro-neutralization assay on HEp-2 cells stood at 0.0208 µg/mL.
In experiment [2], Palivizumab showed a Kd of 0.34 nM and a koff of 5.79e-05 s⁻¹.
RSV F710 post-fusion had a stoichiometry N in experiment [3] of 3.

The term Kd denotes the equilibrium constant for the complex coming apart. High values mean a looser complex, low ones a tighter complex. What is called koff is the first-order rate constant of dissociation. Low values mean slow dissociation, high ones fast dissociation. The stoichiometry N is the number of molecules, sites or subunits per partner or assembly.
